Results taken from patent publication US5565425A, “Viral infection and proliferation inhibitors” (Snow Brand Milk Products Co., Ltd, priority 1993, dated 1996).

Columns and labels:
HIV (HTLV-IIIB) = assay: Inhibitory activity against HIV infection and proliferation in MT-4 cells (indirect fluorescence antibody method); assay type: cell-based, human immunodeficiency virus (HIV); conditions: three days, positive control 26.0%
Description: (Method) Cultured supernatant of MOLT-4/HTLV-IIIB cells, a HTLV-IIIB persistent infected strain of HIV, was used as a viral solution. The supernatant was kept at -80° C. Human T cell line MT-4 was used for the test. MT-4 was subcultured in RPMI 1640 medium containing 10% fetal calf serum (FCS). Sample, LF derived peptide, was dissolved in RPMI 1640 medium and one ml of the diluted solution at various concentrations was added to the cells. The inoculated MT-4 test sample was incubated for 60 minutes and infected with HIV at a concentration of moi […]=0.01 and one ml of the cell solution adjusted at a cell density of 3×10^5 cells/ml was added. The cells were cultured for three days : and HIV infected cells were determined with an indirect fluorescence antibody method.
HIV infected cells were determined by the indirect fluorescence antibody method using HIV infected patient serum as a primary antibody. […] HIV infected MT-4 cells cultured without addition of the sample was used as a positive control and cells without addition of viral solution was cultured to make a negative control group.

[1] = tested on: Human CMV (Tanaka strain); assay: Inhibitory activity against human CMV infection and proliferation in HELF cells (fluorescence staining); assay type: cell-based, Human cytomegalo virus; conditions: 24 hrs., concentration not given
Description: (Method) LF derived peptide was dissolved in 2% serum added MEM medium to give five mg/ml solution, filtered and sterilized to make a stock solution. The stock solution was diluted with 2% serum added MEM medium on use. Samples containing human embryo lung fibroblast cells (HELF cells) were suspended in 2% serum added MEM medium and incubated for 10 minutes. The cells were collected by centrifugation, washed twice with 2% serum added MEM medium and suspended in 2% serum added MEM medium. Human cytomegalo virus [Human CMV (Tanaka strain)] was added, incubated for 24 hrs., fluorescence stained with human CMV positive serum and the adsorption rate of human CMV to the cells was determined.
The results are judged from the numbers of fluorescent stained cells per one cover slip.

[2] = tested on: influenza virus A/PR/8/34; conditions: 100 μl of one mg/ml solution in allantoic cavity three hours before virus; average of five eggs

B1: Human LF: human lactoferrin, an iron-binding protein secreted in milk (protein, UniProt P02788 20-710, looked up)
Lactotransferrin: GRRRSVQWCAVSQPEATKCFQWQRNMRKVRGPPVSCIKRDSPIQCIQAIAENRADAVTLDGGFIYEAGLAPYKLRPVAAEVYGTERQPRTHYYAVAVVKKGGSFQLNELQGLKSCHTGLRRTAGWNVPIGTLRPFLNWTGPPEPIEAAVARFFSASCVPGADKGQFPNLCRLCAGTGENKCAFSSQEPYFSYSGAFKCLRDGAGDVAFIRESTVFEDLSDEAERDEYELLCPDNTRKPVDKFKDCHLARVPSHAVVARSVNGKEDAIWNLLRQAQEKFGKDKSPKFQLFGSPSGQKDLLFKDSAIGFSRVPPRIDSGLYLGSGYFTAIQNLRKSEEEVAARRARVVWCAVGEQELRKCNQWSGLSEGSVTCSSASTTEDCIALVLKGEADAMSLDGGYVYTAGKCGLVPVLAENYKSQQSSDPDPNCVDRPVEGYLAVAVVRRSDTSLTWNSVKGKKSCHTAVDRTAGWNIPMGLLFNQTGSCKFDEYFSQSCAPGSDPRSNLCALCIGDEQGENKCVPNSNERYYGYTGAFRCLAENAGDVAFVKDVTVLQNTDGNNNEAWAKDLKLADFALLCLDGKRKPVTEARSCHLAMAPNHAVVSRMDKVERLKQVLLHQQAKFGRNGSDCPDKFCLFQSETKNLLFNDNTECLARLHGKTTYEKYLGPQYVAGITNLKKCSTSPLLEACEFLRK
ratio of stained (HIV infected) cells (HIV (HTLV-IIIB); sample 63 μg/ml): 17%
ratio of stained (HIV infected) cells (HIV (HTLV-IIIB); sample 125 μg/ml): 8.6%
ratio of stained (HIV infected) cells (HIV (HTLV-IIIB); sample 250 μg/ml): 7.3%
ratio of stained (HIV infected) cells (HIV (HTLV-IIIB); sample 500 μg/ml): 5.8%
ratio of stained (HIV infected) cells (HIV (HTLV-IIIB); sample 1,000 μg/ml): 3.1%
Inhibitory rate of human CMV infection [1]: 94.8%
Inhibitory rate of infection and proliferation of influenza virus [2]: 87.5%
